Results from patent US20230212587A1, “Mutant Hydroxyphenylpyruvate Dioxygenase Polypeptide, Encoding Gene Thereof and Use Therefor” (Beijing Dabeinong Biotechnology Co., Ltd., priority 2019, published 2023).

Tested on: Arabidopsis thaliana T1 plants
Assay: Topramezone tolerance of transgenic Arabidopsis thaliana T1 plants (pesticide damage grade by bleached leaf area, score, resistance evaluation)
Assay type: in vivo
Conditions: HPPD F372G mutants, Table 6
How it was run: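 Eighteen days after sowing, wild-type and HPPD-transgenic T1 Arabidopsis receive a topramezone spray at 1×, 2× or 4× field rate (25–100 g ai/ha) or water. Seven days later each plant is graded by its proportion of bleached leaf area.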

| Molecule | Resistance evaluation (topramezone 25 g ai/ha (1x)) | Resistance evaluation (topramezone 100 g ai/ha (4x)) |
| --- | --- | --- |
| HaHPPDm-F372G: Helianthus annuus HPPD mutant F372G, SEQ ID NO: 319 (protein, HaHPPDm-F372G Amino Acid Sequence) MGTEATVAAVVAGDESDHPTSAFKLVGFKNFIRTNPMSDKFTVKNFHHIEFWCSDATNTARRFSWGLGMPIIFKSDLSTGNSTHASYLLRSGHLNFLFTAPYSPSISPTTTTASIPTFSHSASRHFTATHGLAVRAIAVEVEDAETAFAVSVANGAKPSSPPVTLGHNDVVLSEVKLYGDVVLRYVSYKNNTNNNNNNDNDNYIFLPGFEAMDKTSSFQELDYGIRRLDHAVGNVPELAPAVDYVKSFTGFHEFAEFTAEDVGTSESGLNSVVLACNSEMVLIPMNEPVYGTKRKSQIQTYLEHNEGAGVQHLALASEDIFRTLREMRKRSGVGGFEFMPSPPPTYYRNLKSRAGDVLSDEQIKECEELGILVDRDDQGTLLQIGTKPVGDRPTIFIEIIQRVGCMVKDDEGKVQQKAGCGGFGKGNFSELFKSIEEYEKTLEARSTTAA | Poorly resistant | Non-resistant |
| BvHPPDm-F372G: Beta vulgaris HPPD mutant F372G, SEQ ID NO: 323 (protein, BvHPPDm-F372G Amino Acid Sequence) MGTLSPQPQTSPSQFKLVGYSNFIRVNPLSDLFPVKRFHHVEFWCGDATNVSRRFSWGLGMPIVAKSDLSTGNSVHASYLLRSGELHFLFTSPYSPSLSSPSSATIPTFSFSLFTSFLTSHGLAVRAVAVEVQDAEAAFHISVSNGASPVSPPIRLHDGVVLSEVHLYGDVVLRYVSTSSVVDGIFLPGFEEMLGESSFQELDFGLRRLDHAVGNVPELAPAIEYVKKFTGFHEFAEFTTEDVGTSESGLNSAVVANNDETVLFPMNEPVYGTKRKSQIQTYLEHNEGAGVQHLALMSEDIFWTLREMRKRSGLGGFEFMPSPPPTYYRNLRNRAADVLSEEQMKECEELGILVDKDDQGTLLQIGTKPIGDRPTMFIEIIQRIGCMMKDEEGKVYQKGGCGGFGKGNFSELFKSIEEYEKTLERKPIADTNAT | Moderately resistant | Non-resistant |
| CsHPPDm-F372G: Cucumis sativus HPPD mutant F372G, SEQ ID NO: 327 (protein, CsHPPDm-F372G Amino Acid Sequence) MGKEADFPRAPSEATDGGATASQSEFELQGFDNFIRTNPKSDRFKVKRFHHIEFWCTDATNVARRFSWGLGMQIVAKSDLSTGNMTHASYLLRSGHLCFLFTAPYSPSIAAAQNLTPASTASIPSFDHSVCRSFSGTHGFGARAIALEVEDAEIAFRTSVAHGAKPSCPPIVLENRAVLSEVHLYGDVVLRYISYKNPVSGDNGENKPDEWFLPKFEAMEETASFPLDFGIRRLDHAVGNVPELGPAVSYLKGFTGFHEFAEFTAEDVGTSESGLNSMVLANNEEMVLLPINEPVFGTKRKSQIQTYLEHNEGAGVQHLALMSEDIFRTLREMRKRSSVGGFEFMPSPPPTYYKNLKSRAGDVLTDEQIKECEELGILVDKDDQGTLLQIGTKPVGDRPTIFIEIIQRLGCMMKDEEGKAFQKGGCGGFGKGNFSELFKSIEEYEKTLEAKRVSE | Poorly resistant | Non-resistant |
| MsHPPDm-F372G: Medicago sativa HPPD mutant F372G, SEQ ID NO: 321 (protein, MsHPPDm-F372G Amino Acid Sequence) MAIETETQTQTGFKLVGFKNFVRANPKSDRFKVKRFHHVEFWCTDATNTARRFSHGLGMPIVAKSDLSTGNQTHASYLLRSGDLNFLFSAAYSPSISLSSPSSTAAIPTFSASNCFSFSASHGLAVRAVAVEVEDAELAFTTSVNNGAIPSSPPVILENHVKLAEVRLYGDVVLRYVSYNDPNPNQNPNLLFLPGFERVSDESSNSSLDFGIRRLDHAVGNVPELSSAVKYVKDFTGFHEFAEFTAEDVGTSESGLNSVVLANNEETVLLPMNEPVYGTKRKSQIETYLEHNEGAGLQHLALKSEDIFRTLREMRKRSGVGGFEFMPSPPVTYYRNLKNRVGDVLSDEQIKECEELGILVDRDDQGTLLQIGTKPIGDRPTIFIEIIQRVGCMLKDEEGKEYQKGGCGGFGKGNFSELFKSIEEYEKTLETRRTA | Moderately resistant | Non-resistant |
| S1HPPDm-F372G: Solanum lycopersicum HPPD mutant F372G, SEQ ID NO: 331 (protein, SlHPPDm-F372G Amino Acid Sequence) MGKQAAAAADDQQLPGDIEDKFKLVGFNHFVRTNPRSDFFTVKRFHHIEFWCGDATNTARRFSWGLGLPIAAISDLSTGNSVHASYLLRSSSSSQLQFLFTAPYSSAISTSSSASIPTFSVSSHRSFTATHGLGVRAIALEVENSRLAFSTCVAHGAKPVSEPVILNDEVVIAEVHLYGDVVLRFVSFLKDSNCFVFLPGFESVEGAQLDYGIRRLDHAVGNVPELGPVVEYIKSFTGFHEFAEFTAEDVGTAESGLNSVVLANNDETVLFPLNEPVYGTKRKSQIQTYLEHNEGAGVQHLALVTEDIFRTLREMRKRSGIGGFEFMPSPPPTYYKNLKTRAGDILSDEQIQECEELGILVDRDDQGTLLQIGTKPVGDRPTIFLEIIQRIGCMLKNEEGELYQKGGCGGFGKGNFSELFKSIEEYEKTLEAKQNTQVAIA | Poorly resistant | Non-resistant |
| StHPPDm-F372G: Solanum tuberosum HPPD mutant F372G, SEQ ID NO: 329 (protein, StHPPDm-F372G Amino Acid Sequence) MGKQAATATATATATADDQQLPADIEDKYKLVGFNNFVRTNPRSDLFNVKRFHHIEFWCGDATNTARRFSWGLGLPIAAKSDLSTGNSVHASYLLRSSSSQLQFLFTAPYSPAISTPSSSSIPTFSVSSHRSFTETHGLGVRAIALEVENSRLAFSTCVSHGAKPVSEPVILNDEVVISEVHLYGDVVLRFVSFLKDSNRFVFLPGFELVEGAQLDYGIRRLDHAVGNVPQLGPVVEYIKSFTGFHEFAEFTAEDVGTAESGLNSVVLANNDETVLFPLNEPVYGTKRKSQIQTYLEHNEGAGVQHLALVTEDIFRTLREMRKRSGIGGFEFMPSPPPTYYKNLKSRAGDILSDEQIKECEELGILVDRDDQGTLLQIGTKPVGDRPTIFLEIIQRIGCMLQNAEGELYQKGGCGGFGKGNFSELFKSIEEYEKTLEAKQNTQVAIA | Poorly resistant | Non-resistant |
| CyHPPDm-F372G: Cyanobacteria HPPD mutant F372G, SEQ ID NO: 335 (protein, CyHPPDm-F372G Amino Acid Sequence) MEFDYLHLYVDDYQSAHRCYQRQWGFTCVNKIITDQGITGIYQQGQILLLISASESSLSRYADYLQKHPPGVGEVAWQVANWQKIQHQLSELQIETTPVIHPLTKAEGLTFLLWGDVHHSIYPVRSELNQNKTLHGVGLTTIDHVVLNIAADQFTQASQWYQQVFGWSVQQSFTVNTPHSGLYSEALASANGKVQFNLNCPTNNSSQIQTFLANNHGAGIQHVAFSTTSITRTVAHLRERGVNFLKIPTGYYQQQRNSSYFNYASLDWDTLQCLEILLDDQDNTGERLLLQIGSQPCYGVGTLFWEIIERRHRAKGFGQGNFQALYEAVETLEKQLEVP | Moderately resistant | Non-resistant |
| NtHPPDm-F372G: Nicotiana tabacum HPPD mutant F372G, SEQ ID NO: 325 (protein, NtHPPDm-F372G Amino Acid Sequence) MGKLETVTTTSAAAADDSSELTTNFKLVGFKNFIRTNPRSDFFSVKSFHHIEFWCGDATNTARRFSWSLGMPIAAKSDLSTGNSVHASYLLRPVSGSLQFLFTAPYSPSISTPSSAAIPSFSTSTHRSFTTTHGLGVRAVALEVENAYTAFSASVSRGAKPMFEPVTIDEQVAMAEVHLYGDVVLRFVSYLKDADNLVFLPGFEAMDETASYKELDYGIRRLDHAVGNVPELGPVVDYIKRFTGFHEFAEFTAEDVGTAESGLNSMVLANNDETVLLPLNEPVYGTKRKSQIQTYLEHNEGAGVQHLALVTEDIFKTLTEMRKRSGVGGFEFMPSPPPTYYKNLKNRAGDVLSDEQILACEELGILVDRDDQGTLLQIGTKPVGDRPTIFIEIIQRIGCMLKDGKGQVYQKGGCGGFGKGNFSELFRSIEEYEKTLEAKQANQVAAA | Poorly resistant | Non-resistant |
| AhHPPDm-F372G: Arachis hypogaea HPPD mutant F372G, SEQ ID NO: 333 (protein, AhHPPDm-F372G Amino Acid Sequence) MATAYTYAHAVTYCNSQHNPPIIPILSTNQHPPRVTLPSSIPHFISTITTFNLKHFPSHSLHTVMVTQTQQNAPSSSPELGFKLVGFKNFVRTNPKSDRFKVIRFHHVEFWCTDATNTASRFSWGLGMPIVAKSDLSTGNAVHASYLLRSGDLNFLFSAPYSASIAGDGASASFPSFSASDCHSFAAKHGLAVRAVAIEVEDASAAFSASVANGAKPVSPAVLLDNSVGFAEVHLYGDVVLRYISYSAPTRESNLNPTLRFLPGFEAVEADSSFPELDYGIRRLDHAVGNVPELAPAVNYLKKFTGFHEFAEFTAEDVGTSESGLNSVVLASNDEMVLLPLNEPVYGTKRKSQIETYLEHNEGAGLQHLALVSEDIFRTLREMRKRSTIGGFQFMPSPPPTYYRNLKKRAGDVLSDEQIKECEELGILVDRDDQGTLLQIGTKPVGDRPTIFIEIIQRIGCMLKDEEGKVYQKGGCGGFGKGNFSELFKSIEEYEKTLESRRTA | Poorly resistant | Non-resistant |
| BnHPPDm-F372G: Brassica napus HPPD mutant F372G, SEQ ID NO: 317 (protein, BnHPPDm-F372G Amino Acid Sequence) MGHENAAVCETQQHDDAASPGFKLVGFSKFVRKNPKSDKFKVKRFHHIEFWCGDATNVSRRFSWGLGMRFSAKSDLSTGNMVHASYLLTSGDLRFLFTAPYSPSLSAGEAQPSATASIPSFDHASCRSFFSSHGLGVRAVAIEVEDAESAFSISVANGAVPSSPPNVLNGAVTIAEVKLYGDVVLRYVSYYNGTVSFLPGFESVDDTSSFPLDYGIRRLDHAVGNVPELGPALTYLAGFTGFHQFAEFTADDVGTAESGLNSAVLANNDEMVLLPINEPVHGTKRKSQIQTFLEHNEGAGLQHLALMSEDIFRTLREMRKRSGVGGFDFMPSPPPTYYKNLKKRVGDVLSEEQIEECEELGILVDRDDQGTLLQIGTKPLGDRPTIFIEIIQRVGCMKRDEEGKVYQSGGCGGFGKGNFSELFKSIEEYEKTLEAKQLVG | Poorly resistant | Non-resistant |
